Key:
[1] = system: genomic G4 sequences (folded G4 structures); experiment: G4 microarray binding in potassium vs lithium; set-up: species or system human; conditions: GST-tagged proteins
Procedure: The binding specificities of several molecules were evaluated. Microarrays were preincubated with 100 mM potassium chloride to induce G4 formation. Binding of each molecule is measured by detection of fluorescence intensity at each of the microarray features. BG4 and pyridostatin were conjugated with Cy5. Cellular proteins were expressed as chimeric proteins containing GST, and binding for these proteins was detected using an anti-GST antibody conjugated with Cy5 (Materials and Methods). G4 Structures Fold on DNA Microarrays. To evaluate the utility of DNA microarrays to examine G4-binding specificity, a Cy5-labeled pyridostatin (Cy5-PDS), a small molecule known to bind broadly to G4 structures, was synthesized.^13 A Cy5 conjugated version of BG4 (Cy5-BG4), an antibody developed to bind G4s, was also obtained.^31 FIG. 1A, B presents replicate binding intensities to 15,491 DNA sequences on the Design 3 microarray using either Cy5-PDS or Cy5-BG4. For Cy5-PDS, robust binding is observed at 1 μM, with fluorescence intensities ranging over 100-fold between strongest and weakest bound DNA features. The fluorescence-binding intensities of Cy5-PDS are proportional to the concentration of pyridostatin used). […] Antibody binding to non-G4 features increases with higher concentrations, and in some cases non-G4 sequences are more strongly bound by Cy5-BG4 than G4 sequences, including multiple cytosine-rich negative control sequences. Inhibition of G4 Formation Inhibits Cy5-PDS and Cy5-BG4 Binding. Cy5-PDS and Cy5-BG4 binding under conditions that inhibit G4 formation was examined to evaluate if G4 structures form on the microarray and are required for binding. […] It is noted that many sequences, in addition to the oncogene G4 sequences, are capable of forming G4s. […] For Cy5-BG4, the decrease in binding was up to 270-fold for genomic G4 sequences, while binding to negative controls decreased up to 23-fold (FIG. 1D,). In a second experiment, Cy5-PDS binding following a primer extension reaction that produces dsDNA^24 was examined (see Materials and Methods), anticipating that dsDNA would predominate over G4 formation^13. […] 2,27,28
(§1) Microarrays were preincubated with a 100 mM potassium chloride solution for 1 h at RT to induce G4 formation. Protein binding microarray experiments were then performed as previously described.^23 Microarrays were blocked with 4% nonfat dry milk in a potassium phosphate buffer before incubation with proteins or small molecules. Expressed proteins were blocked with 4% nonfat dry milk, ssDNA, and BSA. For the validation experiments, microarrays were also treated with 100 mM lithium chloride to inhibit G4 formation. For experiments examining dsDNA, single-stranded DNA probes were made double-stranded using a primer complementary to a 24-mer constant sequence following the method described previously.^23,24 Double stranding efficiency was monitored using 4% Cy3-dCTP.
Protein or molecule-bound microarrays were scanned with the G5761A SureScan Dx Microarray Scanner System (Agilent) to detect a Cy5 signal at two laser settings (30 and 100 PMT) to ensure signal intensities were below saturation. Spot intensities from microarray images were extracted using the Agilent Feature Extraction Software and are reported as raw fluorescence units. All binding assays were performed at least twice, with high agreement between replicates (R>0.8). Microarrays with the fewest number of saturated spots were used for further analysis. Median intensity was then computed for probes containing identical sequence on each microarray. […]

[2] = system: G4 sequences and non-G4 ssDNA controls on Design 3 microarray; experiment: Custom G4 DNA microarray, direct binding by fluorescence intensity; set-up: species or system human
From the text: Three Agilent DNA microarrays (TABLE 1) were designed, each with four identical sectors that contain ca.177,440 ssDNA 60-mers to examine G4-binding specificity. Arrays were designed with 9-73 replicates of each unique sequence to ensure statistical significance (TABLE 1). Each microarray contains different sets of G4 variants designed to examine several sequence parameters that affect G4 formation and binding specificity such as loop length (Design 1), loop sequence (Design 2), tail sequence (Design 2), and single nucleotide variants of six known G4s (Design 3). All microarrays include a set of 19 sequences from human telomeres and oncogene promoters known to form G4s with various topologies as positive controls (TABLE 2). Designs 2 and 3 have a set of 295 additional G4-forming sequences from the literature.^30 For the loop length variants, the length of the tails and loops of four different MYC G4 sequences (MYC Pu27, MYC Pu18ntd, MYC Pu22, and MYC Pu22 NMR mutant) was increased up to five times their length. Loop and tail sequences were varied using A, T, G, and C polynucleotide stretches and a subset of combinations. For the loop sequence variants, 4,096 sequences of the form NGGGNGGGNNGGGNGGGN (SEQ ID NO: 2) and 64 variants of the form GGGNGGGNGGGNGGG (SEQ ID NO: 1) were generated. For the tail variants, 256 versions of the major MYC G4 with all possible dinucleotide tails ([…] (SEQ ID NO: 3)) were generated. […]
The binding specificities of several molecules were evaluated. […] Binding of each molecule is measured by detection of fluorescence intensity at each of the microarray features. […] Cellular proteins were expressed as chimeric proteins containing GST, and binding for these proteins was detected using an anti-GST antibody conjugated with Cy5 (Materials and Methods). […] For Cy5-PDS, robust binding is observed at 1 μM, with fluorescence intensities ranging over 100-fold between strongest and weakest bound DNA features. The fluorescence-binding intensities of Cy5-PDS are proportional to the concentration of pyridostatin used). […]

human telomeric G4s = experiment: G4 microarray direct binding to telomeric G4s; conditions: GST-tagged helicases
Procedure: as §1
Protein or molecule-bound microarrays were scanned with the G5761A SureScan Dx Microarray Scanner System (Agilent) to detect a Cy5 signal at two laser settings (30 and 100 PMT) to ensure signal intensities were below saturation. Spot intensities from microarray images were extracted using the Agilent Feature Extraction Software and are reported as raw fluorescence units. […] The measured array data (Design 3, PDS) and predictions were normalized using the following
DNA Microarray Binding Experiments DNA microarray experiments were performed and analyzed as described previously. […]

[3] = system: G4 sequences on custom G4 microarray; experiment: G4 microarray competition of unlabeled molecule with Cy5-PDS; format: binding, human
From the text: Whether the microarray platform could be used to reveal the G4-binding specificity of unlabeled molecules via a competition with Cy5-PDS binding was explored. Three example molecules, unlabeled PDS, TMPyP4 (a planar molecule that nonspecifically binds G4 structures^14), and DC-34 (a molecule that selectively binds the MYC G4^15) were examined. […] The binding of unlabeled DC-34 was examined (FIG. 4). There appear to be no features that are better-bound in the presence of DC-34. […] This is consistent with the observation that DC-34 binds the top and bottom surfaces of the G4 and makes specific contacts with purines in the tail sequences.^15 The general properties of features in which DC-34 reduced binding of Cy5-PDS (ratio of PDS/PDS+DC-34) were also examined.
as §1
Protein or molecule-bound microarrays were scanned with the G5761A SureScan Dx Microarray Scanner System (Agilent) to detect a Cy5 signal at two laser settings (30 and 100 PMT) to ensure signal intensities were below saturation. Spot intensities from microarray images were extracted using the Agilent Feature Extraction Software and are reported as raw fluorescence units. All binding assays were performed at least twice, with high agreement between replicates (R>0.8). Microarrays with the fewest number of saturated spots were used for further analysis. […] The measured array data (Design 3, PDS) and predictions were normalized using the following
Custom G4 microarrays have been designed that contain a total of 19,249 G4 DNA sequences [31, the entirety of disclosure of which, including the supplemental information, is incorporated herein by reference]. […] After washing to remove the unbound Cy5-PDS and BMVC, the fluorescence intensities of Cy5-PDS bound to DNA oligonucleotides were detected using a fluorescence scanner. The binding selectivity of BMVC to different G4 structures was assessed by measuring the relative fluorescence intensity reduction of Cy5-PDS as BMVC concentration increased. […]

Row | Molecule | effect of lithium chloride (inhibiting G4 formation) on protein binding [1] | binding to hTelomeric (hyb-2 G4) and hTelomeric1 (hyb-1 G4) sequences (human telomeric G4s) | further results
1 | IGF2: GST-tagged human insulin-like growth factor II, full length ORF | weakened binding |  | binding specificity, G4 vs non-G4 ssDNA sequences [2]: bind only G4 sequences
2 | BLM: GST-tagged human Bloom's syndrome protein helicase | weakened binding | specifically binds the wt hTelomeric sequence that forms hyb-2 G4 | 
3 | CNBP: GST-tagged human cellular nucleic acid binding protein | does not inhibit DNA binding |  | 
4 | NCCOc1cc(C(=O)Nc2cc(OCCN)c3ccccc3n2)nc(C(=O)Nc2cc(OCCN)c3ccccc3n2)c1 [pyridostatin] |  |  | effect of unlabeled competitor on Cy5-PDS binding ([3]; 1 μM Cy5-PDS, various concentrations of unlabeled competitor): no change in binding specificity; binding selectivity profile to different G4 sequences ([3]; 1 μM unlabeled ligand and 1 μM Cy5-PDS): bind less selectively
5 | WRN: GST-tagged human Werner syndrome RecQ like helicase | weakened binding | can bind both hTelomeric (hyb-2 G4) and hTelomeric1 (hyb-1 G4) sequences | 
6 | PIF1: GST-tagged human PIF1 helicase (protein, listed as Homo sapiens, GST tag, GST-tagged human PIF1 helicase) MLSGIEAAAGEYEDSELRCRVAVEELSPGGQPRRRQALRTAELSLGRNERRELMLRLQAPGPAGRPRCFPLRAARLFTRFAEAGRSTLRLPAHDTPGAGAVQLLLSDCPPDRLRRFLRTLRLKLAAAPGPGPASARAQLLGPRPRDFVTISPVQPEERRLRAATRVPDTTLVKRPVEPQAGAEPSTEAPRWPLPVKRLSLPSTKPQLSEEQAAVLRAVLKGQSIFFTGSAGTGKSYLLKRILGSLPPTGTVATASTGVAACHIGGTTLHAFAGIGSGQAPLAQCVALAQRPGVRQGWLNCQRLVIDEISMVEADLFDKLEAVARAVRQQNKPFGGIQLIICGDFLQLPPVTKGSQPPRFCFQSKSWKRCVPVTLELTKVWRQADQTFISLLQAVRLGRCSDEVTRQLQATASHKVGRDGIVATRLCTHQDDVALTNERRLQELPGKVHRFEAMDSNPELASTLDAQCPVSQLLQLKLGAQVMLVKNLSVSRGLVNGARGVVVGFEAEGRGLPQVRFLCGVTEVIHADRWTVQATGGQLLSRQQLPLQLAWAMSIHKSQGMTLDCVEISLGRVFASGQAYVALSRARSLQGLRVLDFDPMAVRCDPRVLHFYATLRRGRSLSLESPDDDEAASDQENMDPIL | does not inhibit DNA binding |  | 
